The text below walks through data of publication PMC12663309, “NEK7 couples SDHB to orchestrate respiratory chain electron transport homeostasis that impedes liver fibrosis” (Nature Communications, 2025).

One may read the Kd as the concentration at which binding is half-saturated.

This assay deals with T1, human NEK7 recombinant protein (HY-P75935, MCE) (human, UniProt Q8TDX7 1-302, RED-NHS dye label (in the MST only)).
T1 construct: NEK7, human, commercially sourced recombinant protein; the vendor's catalogue entry would tell them; source: bought: MCE (HY-P75935), recombinant, purity 94%
The assay is described as follows: SPR; Biacore T200; NEK7 or NEK7-mut immobilised by amine coupling; SDHB flowed at different concentrations; 1:1 Langmuir binding model. The settings on record: both partners purified. For orientation: Surface plasmon resonance follows binding to a sensor surface in real time, without labels.

T1 sequence (Q8TDX7 whole entry, one chain of several): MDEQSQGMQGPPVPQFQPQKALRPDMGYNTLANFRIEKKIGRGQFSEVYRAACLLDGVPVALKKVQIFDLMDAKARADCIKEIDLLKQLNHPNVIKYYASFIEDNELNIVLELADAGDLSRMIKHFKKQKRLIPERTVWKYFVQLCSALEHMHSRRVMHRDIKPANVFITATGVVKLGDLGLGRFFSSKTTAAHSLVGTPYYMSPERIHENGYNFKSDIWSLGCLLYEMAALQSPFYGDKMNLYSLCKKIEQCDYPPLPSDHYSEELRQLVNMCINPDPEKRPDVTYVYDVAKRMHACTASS

B1: human SDHB recombinant protein (Ag29868, Proteintech) (natural protein, UniProt P21912 29-280, looked up)
chain: AQTAAATAPRIKKFAIYRWDPDKAGDKPHMQTYEVDLNKCGPMVLDALIKIKNEVDSTLTFRRSCREGICGSCAMNINGGNTLACTRRIDTNLNKVSKIYPLPHMYVIKDLVPDLSNFYAQYKSIEPYLKKKDESQEGKQQYLQSIEEREKLDGLYECILCACCSTSCPSYWWNGDKYLGPAVLMQAYRWMIDSRDDFTEERLAKLQDPFSLYRCHTIMNCTRTCPKGLNPGKAIAEIKKMMATYKEKKASV
notes: SDHB, human, commercially sourced recombinant protein; the vendor's catalogue entry would tell them (such antigen proteins may be tagged fragments); source: bought: Proteintech (Ag29868), recombinant, purity 80%
B1: the Kd amounted to 349 nM.
